Reference: patent US20260234283A1 (published 2026)

T1: recombinant cyno SIRPα-His (cynomolgus monkey, UniProt A0A2K5VYQ9 31-372)
T1 chain: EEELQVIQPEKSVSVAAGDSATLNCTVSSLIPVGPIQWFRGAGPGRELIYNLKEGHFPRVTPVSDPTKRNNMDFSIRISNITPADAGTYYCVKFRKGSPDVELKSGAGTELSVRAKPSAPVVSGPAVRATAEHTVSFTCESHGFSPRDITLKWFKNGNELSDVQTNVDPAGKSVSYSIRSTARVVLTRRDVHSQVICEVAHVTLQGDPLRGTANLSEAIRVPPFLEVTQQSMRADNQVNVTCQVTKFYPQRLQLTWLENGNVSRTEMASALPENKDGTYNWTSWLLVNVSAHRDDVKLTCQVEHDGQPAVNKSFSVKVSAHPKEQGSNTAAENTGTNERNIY


Experiments:
Assay in all cases: Biacore
[1] = target: recombinant human SIRPα-His V2 (human, UniProt P78324 31-370)
[2] = target: recombinant human SIRPα-His V8 (human, UniProt P78324 31-370)
[3] = target: T1, recombinant cyno SIRPα-His

Sequence of recombinant human SIRPα-His V2 (P78324 other isoform, or with tags, fused parts or gaps): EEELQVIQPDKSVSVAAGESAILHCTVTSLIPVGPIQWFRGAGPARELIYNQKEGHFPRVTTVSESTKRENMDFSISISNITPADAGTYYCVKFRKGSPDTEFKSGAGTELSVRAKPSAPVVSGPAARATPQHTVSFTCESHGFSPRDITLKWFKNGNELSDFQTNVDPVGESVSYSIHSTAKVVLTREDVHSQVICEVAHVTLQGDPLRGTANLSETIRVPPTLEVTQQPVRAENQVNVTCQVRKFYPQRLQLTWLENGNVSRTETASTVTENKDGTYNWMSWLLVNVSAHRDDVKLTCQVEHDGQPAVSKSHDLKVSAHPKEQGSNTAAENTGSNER
Sequence of recombinant human SIRPα-His V8 (P78324 other isoform, or with tags, fused parts or gaps): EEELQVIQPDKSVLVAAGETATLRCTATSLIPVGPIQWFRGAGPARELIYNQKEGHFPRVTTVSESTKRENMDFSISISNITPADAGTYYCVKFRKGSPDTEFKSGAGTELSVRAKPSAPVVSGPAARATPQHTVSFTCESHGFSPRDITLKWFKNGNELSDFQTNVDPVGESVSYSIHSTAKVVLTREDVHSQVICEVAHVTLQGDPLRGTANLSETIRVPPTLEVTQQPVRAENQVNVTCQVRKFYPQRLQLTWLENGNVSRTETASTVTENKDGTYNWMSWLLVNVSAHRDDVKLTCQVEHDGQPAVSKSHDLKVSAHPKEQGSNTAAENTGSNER

Binder	Kd [1] [nM]	Kd [2] [nM]	Kd [3] [nM]
49.91C2.A9 (antibody, V domains shown) VH: EVKLLESGGGLVQPGGSLKLSCAASGFDFSRYWMSWVRQAPGKGLEWIGEINPDSSTINYTPSLKDKFIISRDNAKNTLYLQMSKVRSEDTALYYCATSFYGSSYWYFDVWGAGTTVTVSS VL: not shown	40.2	35	
54.69B10.E7 (antibody, V domains shown) VH: EVQLVESGGGLVQPGGSLRLSCAASGFTFSSYDMHWVRQTTGKGLEWVSVIGIAGDTYYAGSVKGRFTISRENAKSSLYLQMNSLRAGDTAVYYCARGGNWDDAFDIWGQGTMVTVSS VL: DIQMTQSPSSLSASVGDRVTITCRASQDINNYLAWFQQKPGKAPKSLIYTTSSLQSGVPSKFSGSGSGTDFTLTISSLQPEDFATYYCQQYVSYPYTFGQGTKLEIK	< 0.1	< 0.1	3.03
54.8A5.A5 (antibody, V domains shown) VH: EVQLVESGGDLIQPGGSLRLSCAASGFSFSSYDMHWVRQTTGKGLEWVSAIGTAGDTYYPGSVKGRFTISRENAKNSLYLQMNSLRAGDTAVYYCARGGNWDDAFDIWGQGTVVTVSS VL: DIQMTQSPSSLSASVGDRVTITCRASQDINNYLAWFQQKPGRAPKSLIFTASRLQSGVPSKFSGSGSGTDFSLTISSLQPEDFATYYCQQYTFYPYTFGQGTKLEIK	1.13	1.05	72.3
54.58C2.B9.A2 (antibody, V domains shown) VH: EVQLVESGGGLVQPGGSLRLSCAASGFTFSSYDMHWVRQATGKGLEWVSVIGISGDTYYPGSVKGRFTISRENAKNSLYLQMNSLRAGDTAVYYCARGGNWDDAFDIWGQGTMVTVSS VL: DIQMTQSPSSLSASVGDRVTITCRASQDINNYLAWFQQKPGKAPKSLIYTTSSLQSGVPSKFSGSGSGTDFTLTISSLQPEDFATYYCQQYVSYPYTFGQGTKLEIK	< 0.1	< 0.1	2.65
54.76D9.B6 (antibody, V domains shown) VH: EVQLVESGGGLVQPGGSLRLSCAASGFTFSSYDMHWVRQATGKGLEWVSVIGISGDTYYPGSVKGRFTISRENAKNSLHLQMNSLRAGDTAVYYCARGGNWDDALDIWGQGTMVTVSS VL: DIQMTQSPSSLSASVGDRVTITCRASQDINNYLAWFQQKPGKAPKSLIYTTSSLQSGVPSKFSGSGSGTDFTLTISSLQPEDFATYYCQQYVSYPYTFGQGTKLEIK	< 0.1	< 0.1	3.17
56.16A1.H11 (antibody, V domains shown) VH: EVQLVESGGGLVQPGRSMKLSCAASGFIFTNYDMAWVRQAPTKGLEWVASISYGGSRIYYRDSVKGRFTISRDDAKSTLYLQMDSLRSEDTATYYCTTDYGYNPSYYWYFDFWGPGTMVTVSS VL: DIQMTQTPSSMPASLGERVTISCRASQGISNYLNWYQQKPDGTIKPLIYYTSNLQSGVPSRFSGSGSGTDYSLTISSLEPEDFAMYYCQQYDSSPYTFGAGTKLELKR	0.981	0.337	1.19
53.21A9.B11 (antibody, V domains shown) VH: QVQLQESGPGLVKPSETLSLTCTVSGGSVSSGRYYWSWIRQPPGKGLEWIGYIYYSGSTNYNPSLKSRVTISVDTSKNQFSLKLTSVTAADTAVYYCARAYDWNYFFDYWGQGTLVTVSS VL: DIVMTQSPLSLPVTPGEPASISCRSSQSLLYSNGYNYLEWYLQKPGQSPQLLIYLGSNRASGVPDRFSGSGSGTDFTLQISRVEAEDVGVYYCMQGLQTPITFGQGTRLEIK	67.6	62.3	116
49.64D3.A6 (antibody, V domains shown) VH: EVMLVESGGGLVKPGGSLKLTCAASGFIFSNYAMSWVRQTPEKRLEWVATFSSGGSYTYYQDSVKGRFTVSRDNAKNTLYLQMSSLRSEDTAMYYCARSGWDGWFAYWGQGTLVTVSA VL: not shown	3.17	2.66	22.6
49.56C11.C1 (antibody, V domains shown) VH: EVMLVESGGGLVKPGGSLKLTCAASGFTFSNHAMSWVRQTPEKRLEWVATFGSGGSYTYYLDSVKGRFTVSRDNAKNTLYLQMSSLRSEDTAMYYCSRSGWDGWFAYWGQGTLVTVSA VL: not shown	3.41	2.68	22.3
